# Tested on: AncSZ
# Assay: phosphorylation enrichment, bacterial display (enrichment ratio); higher = better substrate or ligand; peptides without Tyr show the background
# 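Note: 11-residue human phosphosite peptides and single-mutation variants displayed on the E. coli surface, counted by deep sequencing, each peptide's frequency after selection divided by its frequency in the unselected input library; frequency after pTyr selection over input frequency; kinase dosed for 20-30% of maximal phosphorylation in three min.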
row,Sequence,phosphorylation enrichment
1,EFKKHYGYSLY [ANXA3_Y295],0.531
2,LKEIHYPPFTD [ALDH3B2_Y362_YF],0.819
3,NQELIYEGQRL [TBK1_Y354_R357Q],1.71
4,YRRITYYNWRH [PDE6B_Y556_H557Y],0.64
5,CTTIHCNYMCN [TP53_Y234_Y234C],1.06
6,HGEAYYSEVKP [PAK5_Y182],2.68
7,MKVPLYETPAG [PGM5_Y358_V357L],1.64
8,PLYGEYFTLQI [TP53_Y327_D324Y],4.94
9,DAVAVYDGKIS [SH2D1A_Y7_H8D],0.721
10,SVTCTYFPALN [TP53_Y126_S127F],1.68
11,LSGVIYVILRK [PMP22_Y153],1.01
12,LLVVLYKYRCY [PSEN1_Y154],1.11
13,ALECLYHREKR [TEKT5_Y195],1.26
14,QLCVNYPGGYT [PROS1_Y259],1.24
15,LDYNEYFRGLN [HPRT1_Y198_D201G],2.67
16,LVMFIYAISGM [SCN1A_Y1684_F1687S],1.2
17,EEGEEYGGGGG [TUBA1A_Y451],1.19

row,Sequence,phosphorylation enrichment
1,FQHLRYIKQLG [SAMHD1_Y146_R143H],0.685
2,PESCFYKESWL [IQGAP2_Y630_L629F],1.51
3,PTTKTYFPHFA [HBA1_Y43_D48A],0.796
4,CTTIHYNYMFN [TP53_Y234_C238F],1.14
5,QRRYLYYYSYL [PTEN_Y176_V175L],1.14
6,FFRCHYPLTTL [TNS4_Y644_R642C],0.914
7,ALLTKYSRSSM [DSCC1_Y374_H376R],0.617
8,FGGRDYSLDEF [MYOF_Y1705_YF],0.964
9,ENKGVYVPMSG [IVD_Y277_L279P],0.599
10,RSRRSYSCQVM [IGLL1_Y192],0.754
11,AARVSYRLASG [DCHS1_Y1582],0.554
12,SEVVPYEPPEV [TP53_Y220_V216E],1.28
13,CRPPFYHRNCM [HGD_Y334_F329C_YF],0.913
14,LAGRYYALKSM [CKB_Y174],1.24
15,SNKELYEKYMI,0.896
16,ADGLEYSRTEL [MMUT_Y287_G291E],1.03

# Target: EPHB1 (UniProt P54762)
# Assay: as above
# Chain of EPHB1 (P54762 whole entry, looked up): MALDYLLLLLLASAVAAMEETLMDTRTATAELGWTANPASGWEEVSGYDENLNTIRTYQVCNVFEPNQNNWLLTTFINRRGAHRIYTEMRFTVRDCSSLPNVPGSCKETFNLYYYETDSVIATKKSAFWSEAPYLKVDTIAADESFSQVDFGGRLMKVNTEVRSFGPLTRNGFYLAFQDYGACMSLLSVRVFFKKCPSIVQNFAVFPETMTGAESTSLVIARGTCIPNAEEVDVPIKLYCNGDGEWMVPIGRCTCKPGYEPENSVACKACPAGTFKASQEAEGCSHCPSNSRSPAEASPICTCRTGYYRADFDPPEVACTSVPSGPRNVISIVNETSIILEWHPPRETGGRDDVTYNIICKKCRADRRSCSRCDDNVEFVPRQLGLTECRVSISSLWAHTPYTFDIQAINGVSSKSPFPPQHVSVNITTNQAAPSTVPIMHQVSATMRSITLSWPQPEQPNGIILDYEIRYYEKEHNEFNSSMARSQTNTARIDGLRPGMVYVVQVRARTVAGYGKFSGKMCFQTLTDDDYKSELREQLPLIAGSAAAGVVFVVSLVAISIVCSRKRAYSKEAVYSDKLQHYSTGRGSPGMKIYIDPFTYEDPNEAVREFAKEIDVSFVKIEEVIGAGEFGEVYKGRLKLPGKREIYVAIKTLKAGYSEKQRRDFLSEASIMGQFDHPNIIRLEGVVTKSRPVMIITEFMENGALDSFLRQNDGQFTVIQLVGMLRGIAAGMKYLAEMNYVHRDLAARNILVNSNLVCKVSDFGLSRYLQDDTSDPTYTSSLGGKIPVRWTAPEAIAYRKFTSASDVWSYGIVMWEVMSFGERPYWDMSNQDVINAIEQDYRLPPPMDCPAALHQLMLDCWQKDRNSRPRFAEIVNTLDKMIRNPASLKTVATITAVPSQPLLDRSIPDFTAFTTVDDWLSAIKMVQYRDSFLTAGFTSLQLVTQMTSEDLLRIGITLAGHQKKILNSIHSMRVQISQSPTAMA
row,Sequence,phosphorylation enrichment
1,EFKKHYGYSLY [ANXA3_Y295],0.367
2,LKEIHYPPFTD [ALDH3B2_Y362_YF],0.425
3,NQELIYEGQRL [TBK1_Y354_R357Q],1
4,YRRITYYNWRH [PDE6B_Y556_H557Y],0.417
5,CTTIHCNYMCN [TP53_Y234_Y234C],0.784
6,HGEAYYSEVKP [PAK5_Y182],2.27
7,MKVPLYETPAG [PGM5_Y358_V357L],19.4
8,PLYGEYFTLQI [TP53_Y327_D324Y],15.8
9,DAVAVYDGKIS [SH2D1A_Y7_H8D],0.589
10,SVTCTYFPALN [TP53_Y126_S127F],0.83
11,LSGVIYVILRK [PMP22_Y153],0.46
12,LLVVLYKYRCY [PSEN1_Y154],0.318
13,ALECLYHREKR [TEKT5_Y195],0.618
14,QLCVNYPGGYT [PROS1_Y259],1.32
15,LDYNEYFRGLN [HPRT1_Y198_D201G],1.28
16,LVMFIYAISGM [SCN1A_Y1684_F1687S],0.931
17,EEGEEYGGGGG [TUBA1A_Y451],0.638

row,Sequence,phosphorylation enrichment
1,FQHLRYIKQLG [SAMHD1_Y146_R143H],0.374
2,PESCFYKESWL [IQGAP2_Y630_L629F],0.772
3,PTTKTYFPHFA [HBA1_Y43_D48A],0.572
4,CTTIHYNYMFN [TP53_Y234_C238F],0.672
5,QRRYLYYYSYL [PTEN_Y176_V175L],1.19
6,FFRCHYPLTTL [TNS4_Y644_R642C],0.509
7,ALLTKYSRSSM [DSCC1_Y374_H376R],0.505
8,FGGRDYSLDEF [MYOF_Y1705_YF],0.597
9,ENKGVYVPMSG [IVD_Y277_L279P],0.411
10,RSRRSYSCQVM [IGLL1_Y192],0.616
11,AARVSYRLASG [DCHS1_Y1582],0.352
12,SEVVPYEPPEV [TP53_Y220_V216E],0.604
13,CRPPFYHRNCM [HGD_Y334_F329C_YF],0.474
14,LAGRYYALKSM [CKB_Y174],0.541
15,SNKELYEKYMI,0.652
16,ADGLEYSRTEL [MMUT_Y287_G291E],0.483

# Target: EPHB2 (UniProt P29323)
# Assay: as above
# Chain of EPHB2 (P29323 whole entry, looked up): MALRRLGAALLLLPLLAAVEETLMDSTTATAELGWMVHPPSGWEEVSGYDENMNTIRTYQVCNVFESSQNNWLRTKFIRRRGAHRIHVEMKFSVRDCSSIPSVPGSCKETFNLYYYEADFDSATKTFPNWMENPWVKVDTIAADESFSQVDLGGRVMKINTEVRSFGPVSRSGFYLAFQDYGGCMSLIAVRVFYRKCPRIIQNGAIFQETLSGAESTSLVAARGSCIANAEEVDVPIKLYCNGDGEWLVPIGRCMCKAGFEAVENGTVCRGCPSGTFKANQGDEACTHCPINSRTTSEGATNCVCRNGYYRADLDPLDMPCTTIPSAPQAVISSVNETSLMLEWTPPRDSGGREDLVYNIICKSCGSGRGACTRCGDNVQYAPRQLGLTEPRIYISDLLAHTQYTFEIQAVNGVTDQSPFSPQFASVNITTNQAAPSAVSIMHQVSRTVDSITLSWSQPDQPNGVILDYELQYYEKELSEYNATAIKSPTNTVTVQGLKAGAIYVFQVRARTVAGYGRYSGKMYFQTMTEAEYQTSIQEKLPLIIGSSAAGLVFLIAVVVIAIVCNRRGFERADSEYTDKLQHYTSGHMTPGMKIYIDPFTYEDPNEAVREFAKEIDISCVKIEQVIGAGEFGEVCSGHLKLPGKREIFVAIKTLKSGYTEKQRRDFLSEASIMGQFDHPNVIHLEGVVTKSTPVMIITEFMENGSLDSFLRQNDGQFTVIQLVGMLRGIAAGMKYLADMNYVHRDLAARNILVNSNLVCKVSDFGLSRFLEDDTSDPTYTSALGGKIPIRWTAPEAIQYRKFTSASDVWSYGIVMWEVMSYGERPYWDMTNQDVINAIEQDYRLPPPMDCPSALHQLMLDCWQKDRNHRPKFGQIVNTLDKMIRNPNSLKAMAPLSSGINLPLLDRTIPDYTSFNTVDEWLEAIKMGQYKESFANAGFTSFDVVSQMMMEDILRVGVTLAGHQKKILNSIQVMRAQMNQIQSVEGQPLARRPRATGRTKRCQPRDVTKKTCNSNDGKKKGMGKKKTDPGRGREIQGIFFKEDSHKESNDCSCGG
row,Sequence,phosphorylation enrichment
1,EFKKHYGYSLY [ANXA3_Y295],0.39
2,LKEIHYPPFTD [ALDH3B2_Y362_YF],0.541
3,NQELIYEGQRL [TBK1_Y354_R357Q],1.11
4,YRRITYYNWRH [PDE6B_Y556_H557Y],0.457
5,CTTIHCNYMCN [TP53_Y234_Y234C],0.612
6,HGEAYYSEVKP [PAK5_Y182],1.8
7,MKVPLYETPAG [PGM5_Y358_V357L],27.8
8,PLYGEYFTLQI [TP53_Y327_D324Y],18.6
9,DAVAVYDGKIS [SH2D1A_Y7_H8D],0.622
10,SVTCTYFPALN [TP53_Y126_S127F],0.669
11,LSGVIYVILRK [PMP22_Y153],0.23
12,LLVVLYKYRCY [PSEN1_Y154],0.642
13,ALECLYHREKR [TEKT5_Y195],0.675
14,QLCVNYPGGYT [PROS1_Y259],0.772
15,LDYNEYFRGLN [HPRT1_Y198_D201G],1.37
16,LVMFIYAISGM [SCN1A_Y1684_F1687S],0.927
17,EEGEEYGGGGG [TUBA1A_Y451],0.769

row,Sequence,phosphorylation enrichment
1,FQHLRYIKQLG [SAMHD1_Y146_R143H],0.371
2,PESCFYKESWL [IQGAP2_Y630_L629F],0.671
3,PTTKTYFPHFA [HBA1_Y43_D48A],0.386
4,CTTIHYNYMFN [TP53_Y234_C238F],0.641
5,QRRYLYYYSYL [PTEN_Y176_V175L],1.12
6,FFRCHYPLTTL [TNS4_Y644_R642C],0.512
7,ALLTKYSRSSM [DSCC1_Y374_H376R],0.535
8,FGGRDYSLDEF [MYOF_Y1705_YF],0.602
9,ENKGVYVPMSG [IVD_Y277_L279P],0.383
10,RSRRSYSCQVM [IGLL1_Y192],0.802
11,AARVSYRLASG [DCHS1_Y1582],0.49
12,SEVVPYEPPEV [TP53_Y220_V216E],0.621
13,CRPPFYHRNCM [HGD_Y334_F329C_YF],0.555
14,LAGRYYALKSM [CKB_Y174],0.417
15,SNKELYEKYMI,0.62
16,ADGLEYSRTEL [MMUT_Y287_G291E],0.572

# Target: FGFR1 (UniProt P11362)
# Assay: as above
# Chain of FGFR1 (P11362 whole entry, looked up): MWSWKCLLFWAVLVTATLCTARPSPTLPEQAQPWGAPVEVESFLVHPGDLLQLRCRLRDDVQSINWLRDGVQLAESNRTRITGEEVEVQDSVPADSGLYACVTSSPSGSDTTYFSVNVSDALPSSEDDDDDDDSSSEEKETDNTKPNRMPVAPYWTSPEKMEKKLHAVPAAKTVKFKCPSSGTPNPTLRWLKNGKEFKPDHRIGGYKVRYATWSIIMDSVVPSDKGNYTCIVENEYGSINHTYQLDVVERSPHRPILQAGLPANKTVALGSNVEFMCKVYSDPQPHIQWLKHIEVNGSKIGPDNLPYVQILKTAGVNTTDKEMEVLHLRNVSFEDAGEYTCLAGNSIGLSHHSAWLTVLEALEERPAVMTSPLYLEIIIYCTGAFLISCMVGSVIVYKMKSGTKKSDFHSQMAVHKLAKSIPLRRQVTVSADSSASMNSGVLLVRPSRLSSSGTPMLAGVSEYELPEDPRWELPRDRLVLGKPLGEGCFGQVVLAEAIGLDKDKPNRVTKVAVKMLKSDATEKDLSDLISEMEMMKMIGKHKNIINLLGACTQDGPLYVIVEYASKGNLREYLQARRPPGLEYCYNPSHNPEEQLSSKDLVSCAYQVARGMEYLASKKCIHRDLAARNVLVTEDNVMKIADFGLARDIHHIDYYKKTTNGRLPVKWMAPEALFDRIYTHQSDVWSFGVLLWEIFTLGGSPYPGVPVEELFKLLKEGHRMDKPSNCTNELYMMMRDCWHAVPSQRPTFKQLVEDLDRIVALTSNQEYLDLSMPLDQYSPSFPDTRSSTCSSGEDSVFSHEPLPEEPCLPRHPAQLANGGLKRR
row,Sequence,phosphorylation enrichment
1,EFKKHYGYSLY [ANXA3_Y295],0.471
2,LKEIHYPPFTD [ALDH3B2_Y362_YF],0.474
3,NQELIYEGQRL [TBK1_Y354_R357Q],0.628
4,YRRITYYNWRH [PDE6B_Y556_H557Y],0.497
5,CTTIHCNYMCN [TP53_Y234_Y234C],0.41
6,HGEAYYSEVKP [PAK5_Y182],3.13
7,MKVPLYETPAG [PGM5_Y358_V357L],0.52
8,PLYGEYFTLQI [TP53_Y327_D324Y],17.6
9,DAVAVYDGKIS [SH2D1A_Y7_H8D],0.44
10,SVTCTYFPALN [TP53_Y126_S127F],0.632
11,LSGVIYVILRK [PMP22_Y153],0.443
12,LLVVLYKYRCY [PSEN1_Y154],0.686
13,ALECLYHREKR [TEKT5_Y195],0.484
14,QLCVNYPGGYT [PROS1_Y259],0.767
15,LDYNEYFRGLN [HPRT1_Y198_D201G],2.77
16,LVMFIYAISGM [SCN1A_Y1684_F1687S],0.48
17,EEGEEYGGGGG [TUBA1A_Y451],0.604

row,Sequence,phosphorylation enrichment
1,FQHLRYIKQLG [SAMHD1_Y146_R143H],0.393
2,PESCFYKESWL [IQGAP2_Y630_L629F],0.707
3,PTTKTYFPHFA [HBA1_Y43_D48A],0.313
4,CTTIHYNYMFN [TP53_Y234_C238F],0.657
5,QRRYLYYYSYL [PTEN_Y176_V175L],4.64
6,FFRCHYPLTTL [TNS4_Y644_R642C],0.463
7,ALLTKYSRSSM [DSCC1_Y374_H376R],0.579
8,FGGRDYSLDEF [MYOF_Y1705_YF],0.512
9,ENKGVYVPMSG [IVD_Y277_L279P],0.48
10,RSRRSYSCQVM [IGLL1_Y192],0.586
11,AARVSYRLASG [DCHS1_Y1582],0.354
12,SEVVPYEPPEV [TP53_Y220_V216E],0.601
13,CRPPFYHRNCM [HGD_Y334_F329C_YF],0.435
14,LAGRYYALKSM [CKB_Y174],1.45
15,SNKELYEKYMI,0.482
16,ADGLEYSRTEL [MMUT_Y287_G291E],0.552
